We go through 1 molecule from publication PMC2760644 (Journal of molecular biology, 2009).

In this test the target is F-actin (chicken, UniProt P68139 1-377). As to the kind of experiment: co-sedimentation.

B1: supervillin headpiece, wild type (domain or fragment)
chain: LAKLCKTIYPLADLLARPLPEGVDPLKLEIYLTDEDFEFALDMTRDEYNALPAWKQVNLKKAKGLF
What is called Kd is the free concentration of one partner at which half of the binding sites on the other are occupied at equilibrium, for simple one-to-one binding. In the case of B1, the Kd is over 20 mM.
